Assay: yeast display, Sf9 membrane polyspecificity reagent, FACS + sequencing; frameworks hold sequencing errors
Procedure, shortened: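 After 36–48 hours of galactose induction, yeast (Saccharomyces cerevisiae BJ5465) displaying a synthetic nanobody library were stained at 4 °C for 1 hour with 10% biotinylated, detergent-solubilized Sf9 membrane reagent. Streptavidin microbeads enriched the stained cells before FACS sorting into low and high (top ~1%) gates on anti-HA and streptavidin fluorescence. Each clone's polyreactivity label reflects its gate of origin.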

Sequence | polyreactivity (PSR sort gate)
QVQLVESGGGLVQAGGSLRLSCAASGSIFGNAMGWYRQAPGKEREVVAAISSSGSSTYYADSVKGRFTISRDNAKNTVYFQMNSLKPEDTAVYYCAKRRRSAAPKYDYWGQGTQVTVSS | high polyreactivity
QVQLVESGGGLVQAGGSLRLSCAASGNTFYKYAMRWYRQAPGKERELVADISWSGGSTYYADSVKGRFTISRDNAKNTVYLQMNSLKPEDTAVYYCNADTPVWDGHAYPVDYWGQGTQVTVSS | low polyreactivity
QVQHVESGGGLVHPGGILRLSCAASGLTFGRNAMGWYRQAPGKERELVAAISRSGGRTSYADSVKGRLTISRDNAKNTVYLQMNSLKPEDTAVYYCAARSPIYRTTYDYWGQGTQVTVSS | high polyreactivity
QVQLVESGGGLVQAGGSLRLSCASSGGTFEVNAMGWYRQAPGKERELVAAIDTSDGSTYYADSVKGRFTISRDNAKNTVYFQMNSLKPEDTSVYYCAAERLFRFWYSAYERYDYWGQGTQVTVSS | low polyreactivity
QVQLVESGGGLVQAGGSLRLSCAASGSTFGRYVMGRYRPAPGKERELVAAISGSGGSTYYADSVKGRFTISRDNAKNTVYLQMNSLKPEDTAVYYCAARVAHYEYYWGQGTQVTVSS | high polyreactivity
QVQLLESGGGLVQAGGSLRLSCAASGRIYLGYALGWYRQAPGKERELVAAITSSGGYTYYADSVKGRFTISLDNAKNTVYLQMNSLKPEDTAVYYCNVYRFGWWYTNDYWGQGTQVTVSS | high polyreactivity
QVQLVESGGGLVQAGGSLRLSCAASGIILDEYAMGWYRQAPGKERELVAAITWIGGSTYADSVKGRFTISRDNAKNTVYLQMNSLKPEDTAVYYCAADYPSLYVWYGYGWYKYDYWGQGTQVTVSS | low polyreactivity
QVQLVESGGGLVQAGGSLRLSCAASGSIFIGYAMGWYRQAHGKERELVAAITSGGSTYADSVKGRFTISRDNAKNPVYLQMNSLKPEDSAVYYCAARFFLVTLDYWGQGTQVTVSS | low polyreactivity
QVQLEESGGGLVHAGGILRLSCAASGYTFYYNAMGWYRQAPGKERELVAAISRSRDTTYYADSVKGRFTISRDNAKYTVYLQMYSLKPEDTEVYYCNAVVQVLADFQKYDYWGQGSQVTVSS | low polyreactivity
QVQLVESGGGLVQAGGSLRLSCAASGIIFRYYAMGWYRQAPGKERELVAAISRGGSTYYADSVKGRFTISRDNAKNTVYLQMNSLKPEDTAVYYCAATSYRRTGYNYWGQGTQVTVSS | high polyreactivity
QVQLVESGGGLVQAGGSLRLSCAASGLIFPYYAMGWYRQAPGKERELVAAISGSGGRTYNADSVKWRFTISRDNAKNTVYLQMNSLKPEDPAVYYCAAAVLDRYTRYIWYIFDYWGQGTQVTVSS | high polyreactivity
QVQLVESGGGIVQAGGSLRLSCAASGNTFNFYAMGWYRQAPGKERELVASITSGGGTNYADSVKGRFTISRDNAKNTVYLQMNSLKPEDTAVYYCADQFYYHFRYHFDWGLGTQVTVSS | low polyreactivity
QVQLVESGGGLVQAGGSLRLSCAASGFTFRYYAMGWYRQAPGKERELVAAISAGGSTYYADSVKGRFTISRDNAKNTVYLQMNSLKQEDTAVYYCTARYQGFVITYYYWGQGTQVTVSS | high polyreactivity
QVQLVESGGGLVQAGGSLRLSCAASGSTFGRNAMGWYRQAPGNERELVAAISKRGGSTYYADSVKGRFTISRDNAKNTVYLQMNSLKPEDTAVYYCAKDVEGLGRRYRWYNYWGQGTQVTVSS | high polyreactivity
QVQIVESGGGLVQAGGSLRLSCAASGRIFERYAMGWYRQAPGKERELVAGISISGGGTYYADSVKGRFTISRDNAKNTVYLQMNSLKPEHNAVYYCAGTFPREEYGYWGEGTQVTVSS | low polyreactivity
QEQQQESGGGQLQAGGSLLLSCAASGNIIRYYYMGWYRQAPGKERELVAAITYGTSTNYADSVKGRFTISRDNAKYSVYLQMISLKPEDTAVYYCAVDVNYGDPLDNWGQGTQVTVSS | high polyreactivity
QVQLVESGGGLVLAGGTLRISCAASGSIFYRNTMGWYRLAPVKERELVAAITRGGGRTYYADSVKARFTISRDTAKNTVFLQMNSLKPEDSAVYYCAVQAFSHTSSRMDYWGQGSQVTVSS | high polyreactivity
QVQLVESGGGLVQAGGSLRLSCAASGSIFGAYAMGWYRQAPGKERELVAAITWRGGSTYYADSVKGRFTISRDNAKNTVYLQMNSLKPEDTAVYYCAARYLRPDGDALTRYGYWGQGTQVTVSS | high polyreactivity
QVQLVESGGGLVQAGGSLRLSCAASGSTFSRYTMGWYRQAPGKERELVAAISKSGGSTYYADSVKGRFTISRDNAKNTVYLQMNSLKPEDTAVYYCAALVRAGTSLDYDYWGQGTEVTVSS | high polyreactivity
QVQLVESGGGLVQAGGSLRLSCAASGSIFNGNDMGWYRQAPGKERELVASITSNGGRTYYADSVKGRVTISRDNAKNTVYLQMNSLKPEDTAVYYCAAGYYILYIWKFDYWGQGTQVTVSS | high polyreactivity
QVQLVESGGGLVEAGGSLRLSCAASGFNIPIYAMGWYRPAPGKERELVASITRSGGSTYYADSVKGRFTISRDNAMNTVYLQMNSLKPEDTAVYFCAASVKIISYLVHSELLGGELDYWGQGTQVTVSS | low polyreactivity
QVQLVESGGGLVQAGGSLRLSCAASGFTFRWYTMGWYRQAPGKERELGAAINRGGSTYYADSVKGRFTISRDNAQNTVYLQMNSLKPEDTAVYYCAKSVSASWGRDYWGQGTQVTVSS | high polyreactivity

Sequence | polyreactivity (PSR sort gate)
QVQLVESGGGLVQAGGSLRLSCAASGSTSYDNSMGWNRKAPGKERELVAAITSDGGSTYYADSVKGRFTISRDKAKNTLYLQMNSLKPEDTAVYYCSADVVHQEWVYVYGGRDDYWGQGTQVTVSS | low polyreactivity
QVQLVESGGGLDQAGGSLRLSCAASGFIFDYYAMGWYRQAPGKERELVAAISWDGDSTNYADSVKGRFTISRDNAKNTVYLQMNSLKPEDTAVYYCNADEQLVDGWFFRYDYWGQGTQVTVSS | low polyreactivity
QDQLGESGGGLVQAGGSLRLSCAASGRSFTYYTMGWYRQAPGKERELVATINNSGGSTYYADSVKGRFTISRDNAKNTVYLQMNSLKPEDTAVYYCAKVLGLPYGAPRSIFVEWEMDYWGQGTQVTVSS | low polyreactivity
QVQLVESGGGLVQAGGSLRISCAASGSTFGPYAMGWYRQAPGKERELVAAIRWSDGSTYYADSVKGRFTISRDNANNTVYLQMNTLKPEDTAVSYCAVDGYGYNDDYWGQGTQVTVSS | high polyreactivity
QVQLVESGGGLVQAGGSLRLSCAASGSTFSNNVMGGYIQAPGKERELVAAISSRGGSTYYADSVKGRFTISRDNAKNTVYLQMNSLKPEDTAVYYCAADQWYAFILGYPMVYWGQGTQVTVSS | high polyreactivity
QVQLVDSGGGLVQAGGSLRLSCAASGRILSTYPMGWYRPAPGKERELVAAITRTSGSTYYADSVKGRFTISRDNAKNTVFLQMNSLKPEDTEVYYCAADTWLITWSGQYNSWGQGTQVTVSS | low polyreactivity
QVQLVESGGGLVQAGGSLRLSCAASGSIFRYYAMGWYRQAPGKERELVAAITASGGRTHYADSVKGRFTISRDNAKNTVYLQLNSLKLEDTAVYYCAADLYYAWYWKQHYDYWGQGTQVTVSS | high polyreactivity
QVQLVDSGGGLVQAGGSLRVSCAASGIIFYYNAMGWYRQAPGKEREFVASISSRGGSTYYADSVKGRFTISRDNSKNTVYLQMNSLKPEDTAVYYCAAAFDWRRQRYNYWGQGTQVTVTS | high polyreactivity
QVQLVESGGGLVQAGGSLRLSCAASGSTLSSNAMGWYRQAPGKVWELVAAISYRGGSTYYADSVKGRFTISRDNAKNTVYLQMNSLKPEDTAVYYCAAYLGPYVRYYYWGQGTQVTVSS | high polyreactivity
QVQLVESGGGLVQAGGSLRLSCAASGRTIWYYAMGWYRQAPGKERELVASITRSGGSTYADSVKGRFTISRDNAKNTVDLQMNSLKPEDTAVYYCAATRPRIPVYQNNYGYWGQGSQVTVSS | high polyreactivity
QVQLVESGGGLVQAGGSLRLSCAASGSIFYYYVRGWYRQAPGKEREFVAAISWGGDSTYYADSVKGRFTISRDNAKNTFYLQMNSLQPEDTAVYYCNADYPWSVVGYDYWAQGTQVTVSS | low polyreactivity
QVHLVESGGGLVQAGGSFRLSCAASGSIFDGYSMGWYRQAPGKERELVAAISYRVGRTYYADSVKGRFTISRDNAKNTVYLQMNSLKPEDTAVYYCAAGYYGNGVFEYDYWGQGTQVTVSS | low polyreactivity
QVQLVESGGGLVQAGGSLRLSCAASGFIFVRNAMGLYRQAPGKEREFVAAITRSGGSTYYADSVKGRFTISRDNAKNTVYLQMNSLKPEDTAVYYCAARIHGSWSFDYWGQGTQVTVSS | low polyreactivity
QVQLVESGGGLVQAGGSLRLSCAASGSTIGYYAMGWYRQAPGTERELVAAITRSGGSTSYADSVKGRFTISRDNAKNTVYLQMNSLKPEDTAVYYCAARFYRPYYARQGYNYWGQGTQVTVSS | high polyreactivity
QVQLVESGGGLVQAGGSLRLSCAASGSTFLPYGMGWYRQAPGKERELVAAITQRGGSTYYADSVKGRFTISRDNAKNTVYLQMNSLKPEDTAVYYCAARYTGRRRLWTGPGYEYWGQGTQVTVSS | high polyreactivity
QVQLVESGGGLVQAGGSLRLRCAASGSIFQSNAMGWYRPAPGKESELVAAISSSGVRTYYADSVKGRFTISRDNAKNTVYLQMNSLKPEDTAVYYCATGWYYAGGPTYEYYYWGQGTQVTVSS | low polyreactivity
QVQLVESGGGLVQAGGSLRLSCAASGSIFSSNAMGWSRQAPGKERELVASIRRGGSTYYADSVKGRFTISRDNAKNTVYLQMNSLKPEDTAVYDCARRYVPWYATYDHWGQGTQVTVSS | high polyreactivity
QVQLVESGGALVQAGGSLRLSCAASGSTFRKYSMGWYRQAPGKERELVAVITKSGGSTYYADSVKGRFTISRDNAKNTVYLQMNSLKPEDTAVYYCAARRGGARHDYWGQGTQVTVSS | high polyreactivity
QVQLVESGGGLVQAGGSLRLSCAASGSIFQPYAMGWYRQAPGKERELVAAISSSGGSTTYADSVKGRFTISRDNAKNTVYLQMNSLKPEDTAVYYCAADSADDMGYWGQGTQVTVSS | low polyreactivity
QVQLVESGGGLVQAGGSLRLSCADSGFTFILYAMGWYRQAPGKERELVAAITTSGGRTYYADSVKGRFTISRDNAKNTVYLQMNSLKPEDTAVYYCAAKEYYTPYRRGYWGQGTQVTVSS | high polyreactivity
QVPLVESGGGLVLAGGSLRLSCAASGSTVDDNAMGWYRQAPGKVRELVAGISTNGGSTSYADSVKGRITISRDNAKNTVYLQMNSRKPEHTAVYYSAKGLYVQFDYWGQGTQVTVSS | low polyreactivity
